The numbers were not newly measured in patent US10610592B2, “Treatment of multiple sclerosis” (priority 2014, dated 2020), which cites them from elsewhere.

For data set [1] the following is noted: patients treated with alemtuzumab.
For data set [2] the following is noted: very prolonged elimination.

As for “Alemtuzumab: monoclonal antibody that binds to proteins (CD-52) on mature lymphocytes”, the “patients who develop thyroid autoimmune diseases, and hematologic and renal complications” value in data set [1] is on record as “Approximately 40%”. On to `C/C(O)=C(\C#N)C(=O)Nc1ccc(C(F)(F)F)cc1` [Teriflunomide], for which, in data set [2], the elimination time result is recorded as “up to 2 years”.
